{
  "source": "the Human Domainome abundance scans (Beltran et al. 2025)",
  "parents": {"B1": {"name": "POU domain, class 2, transcription factor 1, residues 285 to 354; numbered along this chain, P14859 (parent)", "chain": "LEELEQFAKTFKQRRIKLGFTQGDVGLAMGKLYGNDFSQTTISRFEALNLSFKNMCKLKPLLEKWLNDAE"}},
  "note": "± gives the uncertainty stated by the source.",
  "data": [
    {"variants_of": "B1", "experiment": "abundance fitness (aPCA) (normalised: wild type 0, dead -1); higher = more abundant; growth selection in yeast, the domain comes from the species named", "conditions": "Homo sapiens", "values": [
      {"variant": "LEELEQFAKTIKQRRIKLGFTQGDVGLAMGKLYGNDFSQTTISRFEALNLSFKNMCKLKPLLEKWLNDAE", "note": "[F11I]", "abundance fitness": "-0.402 ± 0.048"},
      {"variant": "LEELEQFAKTKKQRRIKLGFTQGDVGLAMGKLYGNDFSQTTISRFEALNLSFKNMCKLKPLLEKWLNDAE", "note": "[F11K]", "abundance fitness": "-1.09 ± 0.15"},
      {"variant": "LEELEQFAKTLKQRRIKLGFTQGDVGLAMGKLYGNDFSQTTISRFEALNLSFKNMCKLKPLLEKWLNDAE", "note": "[F11L]", "abundance fitness": "-0.147 ± 0.023"},
      {"variant": "LEELEQFAKTMKQRRIKLGFTQGDVGLAMGKLYGNDFSQTTISRFEALNLSFKNMCKLKPLLEKWLNDAE", "note": "[F11M]", "abundance fitness": "-0.166 ± 0.037"},
      {"variant": "LEELEQFAKTNKQRRIKLGFTQGDVGLAMGKLYGNDFSQTTISRFEALNLSFKNMCKLKPLLEKWLNDAE", "note": "[F11N]", "abundance fitness": "-1.09 ± 0.093"},
      {"variant": "LEELEQFAKTPKQRRIKLGFTQGDVGLAMGKLYGNDFSQTTISRFEALNLSFKNMCKLKPLLEKWLNDAE", "note": "[F11P]", "abundance fitness": "-1.04 ± 0.1"},
      {"variant": "LEELEQFAKTQKQRRIKLGFTQGDVGLAMGKLYGNDFSQTTISRFEALNLSFKNMCKLKPLLEKWLNDAE", "note": "[F11Q]", "abundance fitness": "-1.11 ± 0.16"},
      {"variant": "LEELEQFAKTRKQRRIKLGFTQGDVGLAMGKLYGNDFSQTTISRFEALNLSFKNMCKLKPLLEKWLNDAE", "note": "[F11R]", "abundance fitness": "-0.955 ± 0.042"},
      {"variant": "LEELEQFAKTSKQRRIKLGFTQGDVGLAMGKLYGNDFSQTTISRFEALNLSFKNMCKLKPLLEKWLNDAE", "note": "[F11S]", "abundance fitness": "-0.206 ± 0.035"},
      {"variant": "LEELEQFAKTVKQRRIKLGFTQGDVGLAMGKLYGNDFSQTTISRFEALNLSFKNMCKLKPLLEKWLNDAE", "note": "[F11V]", "abundance fitness": "-0.239 ± 0.024"},
      {"variant": "LEELEQFAKTWKQRRIKLGFTQGDVGLAMGKLYGNDFSQTTISRFEALNLSFKNMCKLKPLLEKWLNDAE", "note": "[F11W]", "abundance fitness": "-0.105 ± 0.027"},
      {"variant": "LEELEQFAKTYKQRRIKLGFTQGDVGLAMGKLYGNDFSQTTISRFEALNLSFKNMCKLKPLLEKWLNDAE", "note": "[F11Y]", "abundance fitness": "-0.238 ± 0.12"},
      {"variant": "LEELEQFAKTFAQRRIKLGFTQGDVGLAMGKLYGNDFSQTTISRFEALNLSFKNMCKLKPLLEKWLNDAE", "note": "[K12A]", "abundance fitness": "0.006 ± 0.026"},
      {"variant": "LEELEQFAKTFCQRRIKLGFTQGDVGLAMGKLYGNDFSQTTISRFEALNLSFKNMCKLKPLLEKWLNDAE", "note": "[K12C]", "abundance fitness": "-0.041 ± 0.028"},
      {"variant": "LEELEQFAKTFEQRRIKLGFTQGDVGLAMGKLYGNDFSQTTISRFEALNLSFKNMCKLKPLLEKWLNDAE", "note": "[K12E]", "abundance fitness": "-0.046 ± 0.036"},
      {"variant": "LEELEQFAKTFFQRRIKLGFTQGDVGLAMGKLYGNDFSQTTISRFEALNLSFKNMCKLKPLLEKWLNDAE", "note": "[K12F]", "abundance fitness": "-0.307 ± 0.032"},
      {"variant": "LEELEQFAKTFGQRRIKLGFTQGDVGLAMGKLYGNDFSQTTISRFEALNLSFKNMCKLKPLLEKWLNDAE", "note": "[K12G]", "abundance fitness": "-0.146 ± 0.027"},
      {"variant": "LEELEQFAKTFHQRRIKLGFTQGDVGLAMGKLYGNDFSQTTISRFEALNLSFKNMCKLKPLLEKWLNDAE", "note": "[K12H]", "abundance fitness": "-0.084 ± 0.039"},
      {"variant": "LEELEQFAKTFIQRRIKLGFTQGDVGLAMGKLYGNDFSQTTISRFEALNLSFKNMCKLKPLLEKWLNDAE", "note": "[K12I]", "abundance fitness": "-0.007 ± 0.04"},
      {"variant": "LEELEQFAKTFLQRRIKLGFTQGDVGLAMGKLYGNDFSQTTISRFEALNLSFKNMCKLKPLLEKWLNDAE", "note": "[K12L]", "abundance fitness": "-0.156 ± 0.02"},
      {"variant": "LEELEQFAKTFMQRRIKLGFTQGDVGLAMGKLYGNDFSQTTISRFEALNLSFKNMCKLKPLLEKWLNDAE", "note": "[K12M]", "abundance fitness": "-0.062 ± 0.032"},
      {"variant": "LEELEQFAKTFNQRRIKLGFTQGDVGLAMGKLYGNDFSQTTISRFEALNLSFKNMCKLKPLLEKWLNDAE", "note": "[K12N]", "abundance fitness": "-0.107 ± 0.038"},
      {"variant": "LEELEQFAKTFPQRRIKLGFTQGDVGLAMGKLYGNDFSQTTISRFEALNLSFKNMCKLKPLLEKWLNDAE", "note": "[K12P]", "abundance fitness": "-0.085 ± 0.049"},
      {"variant": "LEELEQFAKTFRQRRIKLGFTQGDVGLAMGKLYGNDFSQTTISRFEALNLSFKNMCKLKPLLEKWLNDAE", "note": "[K12R]", "abundance fitness": "0.015 ± 0.033"},
      {"variant": "LEELEQFAKTFSQRRIKLGFTQGDVGLAMGKLYGNDFSQTTISRFEALNLSFKNMCKLKPLLEKWLNDAE", "note": "[K12S]", "abundance fitness": "-0.044 ± 0.024"},
      {"variant": "LEELEQFAKTFTQRRIKLGFTQGDVGLAMGKLYGNDFSQTTISRFEALNLSFKNMCKLKPLLEKWLNDAE", "note": "[K12T]", "abundance fitness": "-0.012 ± 0.03"},
      {"variant": "LEELEQFAKTFVQRRIKLGFTQGDVGLAMGKLYGNDFSQTTISRFEALNLSFKNMCKLKPLLEKWLNDAE", "note": "[K12V]", "abundance fitness": "-0.05 ± 0.024"},
      {"variant": "LEELEQFAKTFWQRRIKLGFTQGDVGLAMGKLYGNDFSQTTISRFEALNLSFKNMCKLKPLLEKWLNDAE", "note": "[K12W]", "abundance fitness": "-0.364 ± 0.033"},
      {"variant": "LEELEQFAKTFYQRRIKLGFTQGDVGLAMGKLYGNDFSQTTISRFEALNLSFKNMCKLKPLLEKWLNDAE", "note": "[K12Y]", "abundance fitness": "-0.157 ± 0.033"},
      {"variant": "LEELEQFAKTFKARRIKLGFTQGDVGLAMGKLYGNDFSQTTISRFEALNLSFKNMCKLKPLLEKWLNDAE", "note": "[Q13A]", "abundance fitness": "-0.02 ± 0.093"},
      {"variant": "LEELEQFAKTFKCRRIKLGFTQGDVGLAMGKLYGNDFSQTTISRFEALNLSFKNMCKLKPLLEKWLNDAE", "note": "[Q13C]", "abundance fitness": "-0.235 ± 0.089"},
      {"variant": "LEELEQFAKTFKERRIKLGFTQGDVGLAMGKLYGNDFSQTTISRFEALNLSFKNMCKLKPLLEKWLNDAE", "note": "[Q13E]", "abundance fitness": "-0.01 ± 0.057"},
      {"variant": "LEELEQFAKTFKFRRIKLGFTQGDVGLAMGKLYGNDFSQTTISRFEALNLSFKNMCKLKPLLEKWLNDAE", "note": "[Q13F]", "abundance fitness": "-0.054 ± 0.05"},
      {"variant": "LEELEQFAKTFKHRRIKLGFTQGDVGLAMGKLYGNDFSQTTISRFEALNLSFKNMCKLKPLLEKWLNDAE", "note": "[Q13H]", "abundance fitness": "0.015 ± 0.11"},
      {"variant": "LEELEQFAKTFKIRRIKLGFTQGDVGLAMGKLYGNDFSQTTISRFEALNLSFKNMCKLKPLLEKWLNDAE", "note": "[Q13I]", "abundance fitness": "-0.121 ± 0.07"},
      {"variant": "LEELEQFAKTFKKRRIKLGFTQGDVGLAMGKLYGNDFSQTTISRFEALNLSFKNMCKLKPLLEKWLNDAE", "note": "[Q13K]", "abundance fitness": "0.042 ± 0.056"},
      {"variant": "LEELEQFAKTFKLRRIKLGFTQGDVGLAMGKLYGNDFSQTTISRFEALNLSFKNMCKLKPLLEKWLNDAE", "note": "[Q13L]", "abundance fitness": "-0.005 ± 0.017"},
      {"variant": "LEELEQFAKTFKMRRIKLGFTQGDVGLAMGKLYGNDFSQTTISRFEALNLSFKNMCKLKPLLEKWLNDAE", "note": "[Q13M]", "abundance fitness": "-0.024 ± 0.022"},
      {"variant": "LEELEQFAKTFKNRRIKLGFTQGDVGLAMGKLYGNDFSQTTISRFEALNLSFKNMCKLKPLLEKWLNDAE", "note": "[Q13N]", "abundance fitness": "-0.049 ± 0.14"}
    ]}
  ]
}
